Measured values from publication PMC6797804, “Histone H3K23-specific acetylation by MORF is coupled to H3K14 acylation” (Nature Communications, 2019).

Test system: promoters of target genes in 293T cells
Assay: ChIP in transfected 293T cells (FLAG-MORFN WT or F287A)
Format: cell-based
Procedure: Chromatin preparation from MEF, U2OS (ATCC HTB-96) and 293T cells were done as previously described. […] Next, 50 μl of Protein G Dynabeads for FLAG ChIP or 25 μl of Protein A Dynabeads was added to each sample and incubated for 4 h at 4 °C. The beads were washed extensively and eluted with 1% SDS and 0.1 M NaHCO3. Cross-linked samples were reversed by heating overnight at 65 °C in the presence of 0.2 M NaCl. Samples were then treated with RNase A and proteinase K for 2 h, and DNA was recovered by phenol-chloroform and ethanol precipitation. Quantitative real-time PCR corrected for primer efficiencies in the linear range were performed using SYBR Green I (Roche) on a LightCycler 480 (Roche).

[1] = corrected for total H3, two independent experiments

| Molecule | association with promoters (FLAG ChIP) (compared to WT FLAG-MORF, two independent experiments) | H3K14ac level on promoters (ChIP) [1] | H3K23ac level on promoters (ChIP) [1] |
| --- | --- | --- | --- |
| FLAG-MORF F287A: FLAG-tagged MORFN F287A mutant defective in histone H3 binding, expressed in 293T cells (protein, UniProt Q8WYB5 1-716, looked up, variant F287A, residues 1-716 FLAG tag) MVKLANPLYTEWILEAIQKIKKQKQRPSEERICHAVSTSHGLDKKTVSEQLELSVQDGSVLKVTNKGLASYKDPDNPGRFSSVKPGTFPKSAKGSRGSCNDLRNVDWNKLLRRAIEGLEEPNGSSLKNIEKYLRSQSDLTSTTNNPAFQQRLRLGAKRAVNNGRLLKDGPQYRVNYGSLDGKGAPQYPSAFPSSLPPVSLLPHEKDQPRADPIPICSFCLGTKESNREKKPEELLSCADCGSSGHPSCLKFCPELTTNVKALRWQCIECKTCSACRVQGRNADNMLACDSCDRGFHMECCDPPLSRMPKGMWICQVCRPKKKGRKLLHEKAAQIKRRYAKPIGRPKNKLKQRLLSVTSDEGSMNAFTGRGSPGRGQKTKVCTTPSSGHAASGKDSSSRLAVTDPTRPGATTKITTTSTYISASTLKVNKKTKGLIDGLTKFFTPSPDGRRSRGEIIDFSKHYRPRKKVSQKQSCTSHVLATGTTQKLKPPPSSLPPPTPISGQSPSSQKSSTATSSPSPQSSSSQCSVPSLSSLTTNSQLKALFDGLSHIYTTQGQSRKKGHPSYAPPKRMRRKTELSSTAKSKAHFFGKRDIRSRFISHSSSSSWGMARGSIFKAIAHFKRTTFLKKHRMLGRLKYKVTPQMGTPSPGKGSLTDGRIKPDQDDDTEIKINIKQESADVNVIGNKDVVTEEDLDVFKQAQELSWEKIECESGVEDC | decreased association | H3K14ac level was unaffected by the mutation | expression of WT FLAG-MORF but not F287A mutant increases H3K23ac level |
| WT FLAG-MORF: FLAG-tagged wild-type MORFN (residues 1–716 of MORF) expressed in 293T cells (protein, UniProt Q8WYB5 1-716, looked up, fragment, FLAG tag, FLAG-tagged wild-type MORFN (residues 1–716 of MORF) expressed in 293T cells) MVKLANPLYTEWILEAIQKIKKQKQRPSEERICHAVSTSHGLDKKTVSEQLELSVQDGSVLKVTNKGLASYKDPDNPGRFSSVKPGTFPKSAKGSRGSCNDLRNVDWNKLLRRAIEGLEEPNGSSLKNIEKYLRSQSDLTSTTNNPAFQQRLRLGAKRAVNNGRLLKDGPQYRVNYGSLDGKGAPQYPSAFPSSLPPVSLLPHEKDQPRADPIPICSFCLGTKESNREKKPEELLSCADCGSSGHPSCLKFCPELTTNVKALRWQCIECKTCSACRVQGRNADNMLFCDSCDRGFHMECCDPPLSRMPKGMWICQVCRPKKKGRKLLHEKAAQIKRRYAKPIGRPKNKLKQRLLSVTSDEGSMNAFTGRGSPGRGQKTKVCTTPSSGHAASGKDSSSRLAVTDPTRPGATTKITTTSTYISASTLKVNKKTKGLIDGLTKFFTPSPDGRRSRGEIIDFSKHYRPRKKVSQKQSCTSHVLATGTTQKLKPPPSSLPPPTPISGQSPSSQKSSTATSSPSPQSSSSQCSVPSLSSLTTNSQLKALFDGLSHIYTTQGQSRKKGHPSYAPPKRMRRKTELSSTAKSKAHFFGKRDIRSRFISHSSSSSWGMARGSIFKAIAHFKRTTFLKKHRMLGRLKYKVTPQMGTPSPGKGSLTDGRIKPDQDDDTEIKINIKQESADVNVIGNKDVVTEEDLDVFKQAQELSWEKIECESGVEDC |  |  | increases H3K23ac level on these promoters |
